Positions count from the first letter of the chain named. Names and notes keep the numbering of the source.
T1: human CD19 (human, UniProt P15391 20-556)
T1 construct: also called B-cell surface antigen B4; B-cell antigen CD19
T1 sequence: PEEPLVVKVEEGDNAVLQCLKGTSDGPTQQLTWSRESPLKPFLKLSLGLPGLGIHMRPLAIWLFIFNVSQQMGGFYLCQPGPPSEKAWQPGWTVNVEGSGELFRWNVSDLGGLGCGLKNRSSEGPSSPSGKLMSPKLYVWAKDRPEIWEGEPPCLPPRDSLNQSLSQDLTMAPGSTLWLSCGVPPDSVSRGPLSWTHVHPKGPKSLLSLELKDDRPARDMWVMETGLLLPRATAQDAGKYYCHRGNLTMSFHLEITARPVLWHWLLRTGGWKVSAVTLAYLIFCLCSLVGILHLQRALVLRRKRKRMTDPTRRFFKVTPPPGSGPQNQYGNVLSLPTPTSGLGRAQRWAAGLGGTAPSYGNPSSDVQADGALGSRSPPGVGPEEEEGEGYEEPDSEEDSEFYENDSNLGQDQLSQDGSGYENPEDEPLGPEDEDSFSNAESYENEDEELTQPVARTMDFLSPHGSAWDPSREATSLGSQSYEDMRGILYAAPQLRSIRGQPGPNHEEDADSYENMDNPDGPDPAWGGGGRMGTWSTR

B1: H1.52 / L1 (antibody, V domains shown)
VH: EVQLVESGGGLVKPGGSLKLSCAASGYTFTSYVMHWVRQAPGKGLEWIGYINPYNDGTKYNEKFQGRVTISSDKSISTAYMELSSLRSEDTAMYYCARGTYYYGTRVFDYWGQGTLVTVSS
VL: DIVMTQSPATLSLSPGERATLSCRSSKSLLNSNGNTYLYWFQQKPGQSPQLLIYRMSNLASGVPDRFSGSGSGTEFTLTISSLEPEDFAVYYCMQHLEYPFTFGAGTKLEIK
notes: vs H1L1 (Kabat): VH S100cT; also called 4G7 H1.52_L1
B2: H1.199 / L1.146 (antibody, V domains shown)
VH: B1 VH with T58P, K59E
VL: B1 VL with S32V, A60N, F101N
notes: vs H1L1 (Kabat): VH T57P/K58E/S100cT; VL S27eV/A55N/F96N; also called 4G7 H1.199_L1.146
B3: H1.65 / L1 (antibody, V domains shown)
VH: B1 VH with T105S, R106S
VL: B1 VL
notes: vs H1L1 (Kabat): VH R100dS; also called 4G7 H1.65_L1
B4: H1.144 / L1 (antibody, V domains shown)
VH: B1 VH with T105S, D109N
VL: B1 VL
notes: vs H1L1 (Kabat): VH D101N; also called 4G7 H1.144_L1
B5: H1.52 / L1.139 (antibody, V domains shown)
VH: B1 VH
VL: B1 VL with S32V, F101N
notes: vs H1L1 (Kabat): VH S100cT; VL S27eV/F96N; also called 4G7 H1.52_L1.139
B6: H1.192 / L1.152 (antibody, V domains shown)
VH: B1 VH with T58P
VL: B1 VL with L30Q, S32V, F101N
notes: vs H1L1 (Kabat): VH T57P/S100cT; VL L27cQ/S27eV/F96N; also called 4G7 H1.192_L1.152
B7: H1 / L1.124 (antibody, V domains shown)
VH: B1 VH with T105S
VL: B1 VL with L59W
notes: vs H1L1 (Kabat): VL L54W; also called 4G7 H1_L1.124
B8: H1.52 / L1.138 (antibody, V domains shown)
VH: B1 VH
VL: B1 VL with S32V, A60N
notes: vs H1L1 (Kabat): VH S100cT; VL S27eV/A55N; also called 4G7 H1.52_L1.138
B9: H1.199 / L1.152 (antibody, V domains shown)
VH: B1 VH with T58P, K59E
VL: B1 VL with L30Q, S32V, F101N
notes: vs H1L1 (Kabat): VH T57P/K58E/S100cT; VL L27cQ/S27eV/F96N; also called 4G7 H1.199_L1.152
B10: H1.191 / L1.160 (antibody, V domains shown)
VH: B1 VH with K59E
VL: B1 VL with L30Q, S32V, G34A, A60N, F101I
notes: vs H1L1 (Kabat): VH K58E/S100cT; VL L27cQ/S27eV/G29A/A55N/F96I; also called 4G7 H1.191_L1.160
B11: H1.146 / L1 (antibody, V domains shown)
VH: B1 VH with T105S, D109H
VL: B1 VL
notes: vs H1L1 (Kabat): VH D101H; also called 4G7 H1.146_L1
B12: H1.192 / L1.144 (antibody, V domains shown)
VH: B1 VH with T58P
VL: B1 VL with L30Q, F101N
notes: vs H1L1 (Kabat): VH T57P/S100cT; VL L27cQ/F96N; also called 4G7 H1.192_L1.144
B13: H1 / L1.11 (antibody, V domains shown)
VH: B1 VH with T105S
VL: B1 VL with E98N
notes: vs H1L1 (Kabat): VL E93N; also called 4G7 H1_L1.11
B14: H1.52 / L1.143 (antibody, V domains shown)
VH: B1 VH
VL: B1 VL with L30Q, A60N
notes: vs H1L1 (Kabat): VH S100cT; VL L27cQ/A55N; also called 4G7 H1.52_L1.143
B15: H1.196 / L1.154 (antibody, V domains shown)
VH: B1 VH with T58P, R106S
VL: B1 VL with L30Q, S32V, A60N, F101N
notes: vs H1L1 (Kabat): VH T57P/S100cT/R100dS; VL L27cQ/S27eV/A55N/F96N; also called 4G7 H1.196_L1.154
B16: H1.199 / L1.139 (antibody, V domains shown)
VH: B1 VH with T58P, K59E
VL: B1 VL with S32V, F101N
notes: vs H1L1 (Kabat): VH T57P/K58E/S100cT; VL S27eV/F96N; also called 4G7 H1.199_L1.139
B17: H1.52 / L1.160 (antibody, V domains shown)
VH: B1 VH
VL: B1 VL with L30Q, S32V, G34A, A60N, F101I
notes: vs H1L1 (Kabat): VH S100cT; VL L27cQ/S27eV/G29A/A55N/F96I; also called 4G7 H1.52_L1.160
B18: H1.191 / L1.149 (antibody, V domains shown)
VH: B1 VH with K59E
VL: B1 VL with L30Q, A60N, F101I
notes: vs H1L1 (Kabat): VH K58E/S100cT; VL L27cQ/A55N/F96I; also called 4G7 H1.191_L1.149
B19: H1.52 / L1.145 (antibody, V domains shown)
VH: B1 VH
VL: B1 VL with L30Q, F101I
notes: vs H1L1 (Kabat): VH S100cT; VL L27cQ/F96I; also called 4G7 H1.52_L1.145
B20: H1.78 / L1 (antibody, V domains shown)
VH: B1 VH with D56A, T105S
VL: B1 VL
notes: vs H1L1 (Kabat): VH D55A; also called 4G7 H1.78_L1
B21: H1.202 / L1.160 (antibody, V domains shown)
VH: B1 VH with D56E
VL: B1 VL with L30Q, S32V, G34A, A60N, F101I
notes: vs H1L1 (Kabat): VH D55E/S100cT; VL L27cQ/S27eV/G29A/A55N/F96I; also called 4G7 H1.202_L1.160
B22: H1.113 / L1 (antibody, V domains shown)
VH: B1 VH with T58H, T105S
VL: B1 VL
notes: vs H1L1 (Kabat): VH T57H; also called 4G7 H1.113_L1
B23: H1.191 / L1.155 (antibody, V domains shown)
VH: B1 VH with K59E
VL: B1 VL with L30Q, S32V, A60N, F101I
notes: vs H1L1 (Kabat): VH K58E/S100cT; VL L27cQ/S27eV/A55N/F96I; also called 4G7 H1.191_L1.155
B24: H1.60 / L1 (antibody, V domains shown)
VH: B1 VH with T105L
VL: B1 VL
notes: vs H1L1 (Kabat): VH S100cL; also called 4G7 H1.60_L1
B25: H1.192 / L1.154 (antibody, V domains shown)
VH: B1 VH with T58P
VL: B1 VL with L30Q, S32V, A60N, F101N
notes: vs H1L1 (Kabat): VH T57P/S100cT; VL L27cQ/S27eV/A55N/F96N; also called 4G7 H1.192_L1.154
B26: H1.192 / L1.148 (antibody, V domains shown)
VH: B1 VH with T58P
VL: B1 VL with L30Q, A60N, F101N
notes: vs H1L1 (Kabat): VH T57P/S100cT; VL L27cQ/A55N/F96N; also called 4G7 H1.192_L1.148
B27: H1.147 / L1 (antibody, V domains shown)
VH: B1 VH with T105S, D109S
VL: B1 VL
notes: vs H1L1 (Kabat): VH D101S; also called 4G7 H1.147_L1
B28: H1.109 / L1 (antibody, V domains shown)
VH: B1 VH with T58P, T105S
VL: B1 VL
notes: vs H1L1 (Kabat): VH T57P; also called 4G7 H1.109_L1
B29: H1.201 / L1.160 (antibody, V domains shown)
VH: B1 VH with D56S
VL: B1 VL with L30Q, S32V, G34A, A60N, F101I
notes: vs H1L1 (Kabat): VH D55S/S100cT; VL L27cQ/S27eV/G29A/A55N/F96I; also called 4G7 H1.201_L1.160
B30: H1.52 / L1.155 (antibody, V domains shown)
VH: B1 VH
VL: B1 VL with L30Q, S32V, A60N, F101I
notes: vs H1L1 (Kabat): VH S100cT; VL L27cQ/S27eV/A55N/F96I; also called 4G7 H1.52_L1.155
B31: H1.192 / L1.146 (antibody, V domains shown)
VH: B1 VH with T58P
VL: B1 VL with S32V, A60N, F101N
notes: vs H1L1 (Kabat): VH T57P/S100cT; VL S27eV/A55N/F96N; also called 4G7 H1.192_L1.146
B32: H1.201 / L1.161 (antibody, V domains shown)
VH: B1 VH with D56S
VL: B1 VL with L30Q, S32V, G34S, A60N, F101I
notes: vs H1L1 (Kabat): VH D55S/S100cT; VL L27cQ/S27eV/G29S/A55N/F96I; also called 4G7 H1.201_L1.161
B33: H1.199 / L1.148 (antibody, V domains shown)
VH: B1 VH with T58P, K59E
VL: B1 VL with L30Q, A60N, F101N
notes: vs H1L1 (Kabat): VH T57P/K58E/S100cT; VL L27cQ/A55N/F96N; also called 4G7 H1.199_L1.148
B34: H1.192 / L1.141 (antibody, V domains shown)
VH: B1 VH with T58P
VL: B1 VL with A60N, F101N
notes: vs H1L1 (Kabat): VH T57P/S100cT; VL A55N/F96N; also called 4G7 H1.192_L1.141
B35: H1.62 / L1 (antibody, V domains shown)
VH: B1 VH with T105S, R106E
VL: B1 VL
notes: vs H1L1 (Kabat): VH R100dE; also called 4G7 H1.62_L1
B36: H1.191 / L1.161 (antibody, V domains shown)
VH: B1 VH with K59E
VL: B1 VL with L30Q, S32V, G34S, A60N, F101I
notes: vs H1L1 (Kabat): VH K58E/S100cT; VL L27cQ/S27eV/G29S/A55N/F96I; also called 4G7 H1.191_L1.161
B37: H1.52 / L1.149 (antibody, V domains shown)
VH: B1 VH
VL: B1 VL with L30Q, A60N, F101I
notes: vs H1L1 (Kabat): VH S100cT; VL L27cQ/A55N/F96I; also called 4G7 H1.52_L1.149
B38: H1.196 / L1 (antibody, V domains shown)
VH: B1 VH with T58P, R106S
VL: B1 VL
notes: vs H1L1 (Kabat): VH T57P/S100cT/R100dS; also called 4G7 H1.196_L1
B39: H1.201 / L1.155 (antibody, V domains shown)
VH: B1 VH with D56S
VL: B1 VL with L30Q, S32V, A60N, F101I
notes: vs H1L1 (Kabat): VH D55S/S100cT; VL L27cQ/S27eV/A55N/F96I; also called 4G7 H1.201_L1.155
B40: H1.196 / L1.152 (antibody, V domains shown)
VH: B1 VH with T58P, R106S
VL: B1 VL with L30Q, S32V, F101N
notes: vs H1L1 (Kabat): VH T57P/S100cT/R100dS; VL L27cQ/S27eV/F96N; also called 4G7 H1.196_L1.152
B41: H1.196 / L1.146 (antibody, V domains shown)
VH: B1 VH with T58P, R106S
VL: B1 VL with S32V, A60N, F101N
notes: vs H1L1 (Kabat): VH T57P/S100cT/R100dS; VL S27eV/A55N/F96N; also called 4G7 H1.196_L1.146
B42: H1.199 / L1.141 (antibody, V domains shown)
VH: B1 VH with T58P, K59E
VL: B1 VL with A60N, F101N
notes: vs H1L1 (Kabat): VH T57P/K58E/S100cT; VL A55N/F96N; also called 4G7 H1.199_L1.141
B43: H1.202 / L1.161 (antibody, V domains shown)
VH: B1 VH with D56E
VL: B1 VL with L30Q, S32V, G34S, A60N, F101I
notes: vs H1L1 (Kabat): VH D55E/S100cT; VL L27cQ/S27eV/G29S/A55N/F96I; also called 4G7 H1.202_L1.161

Biological target: T1, human CD19
Test: binding affinity relative to the parent H1L1 mAb (Example 5); assay and format not named on the sheet

Fold change binding [fold]	Binder
3.22	B1
4.11	B2
1.41	B3
2.26	B4
1.8	B5
2.98	B6
1.47	B7
3.93	B8
3.55	B9
2.91	B10
2.45	B11
3.63	B12
1.59	B13
3.83	B14
4.44	B15
2.36	B16
4.18	B17
6.02	B18
6.41	B19
1.14	B20
3.96	B21
1.29	B22

Fold change binding [fold]	Binder
4.56	B23
1.56	B24
5.12	B25
4.63	B26
2.65	B27
1.52	B28
4.51	B29
6.16	B30
3.19	B31
3.89	B32
4.34	B33
2.57	B34
1.65	B35
3.97	B36
8.6	B37
3.42	B38
4.48	B39
4.36	B40
3.57	B41
4.02	B42
4.3	B43

From patent US20100272723A1 (Xencor, published 2010)
